Reference: patent US20240327502A1 (Merck Sharp & Dohme, published 2024)

Assays:
[1] = molecular target: F protein of hMPV A virus (human metapneumovirus subtype A); assay: cell-based or functional assay
[2] = molecular target: F protein of hMPV B virus (human metapneumovirus subtype B); assay: cell-based or functional assay
[3] = molecular target: T1, unprocessed hMPV PreF trimeric antigen (human metapneumovirus strain B2); assay: ELISA; Ni-NTA plate coated with Expi293 supernatant containing the His-tagged antigen; antibody titrated; OD450
T1 construct: also called unprocessed hMPV WT PreF trimer; hMPV WT trimer

K312Q = molecular target: T2, K312Q; assay: as above
T2 construct: also called unprocessed hMPV PreF K312Q

D296K = molecular target: T3, D296K; assay: as above
T3 construct: also called unprocessed hMPV PreF D296K

T61A, S175R, A185D = molecular target: T4, T61A, S175R, A185D; assay: as above
T4 construct: also called unprocessed hMPV PreF T61A/S175R/A185D

N135T G139N Y233N = molecular target: T5, N135T G139N Y233N; assay: as above
T5 construct: also called unprocessed hMPV PreF N135T/G139N/Y233N

T143K = molecular target: T6, T143K; assay: as above
T6 construct: also called unprocessed hMPV PreF T143K

B1: M2A05 (antibody, V domains shown)
VH: QITLKESGPTLVKPTQTLTLTCTVSGFSLSANSVGVAWFRQPPGKAPEWLGVIYWDDDKRFSPSLKTRLSITKDASTSQVVLRLTNVSPLDTATYYCVRKHYDLLQWGQGAPVTVSS
VL: EIVLTQSPGTLSLSPGEGATLSCRASRSVNSDYIAWYQHKPGLAPRLLIYAASTRATDIPDRFRADVSGTDFTLTIDRLEPDDFAVYYCQQYGSAVWTFGQGTRVEVK
notes: IgG
- PRNT IC50 [1]: > 10000 ng/mL
- PRNT IC50 [2]: 65.7 ng/mL
- EC50 (read off the curve) [3]: ~4 ng/mL
- EC50 (read off the curve) (K312Q): ~3 ng/mL
- EC50 (read off the curve) (D296K): ~70 ng/mL
- EC50 (read off the curve) (T61A, S175R, A185D): ~4 ng/mL
- EC50 (read off the curve) (N135T G139N Y233N): ~3 ng/mL
- EC50 (read off the curve) (T143K): ~3 ng/mL
